Test results from PMC8058561, “Activity-dependent conformational transitions of the insulin receptor–related receptor” (The Journal of Biological Chemistry, 2021).

Target: the molecule itself
Assay: atomic force microscopy; purified full-length IRR in DDM micelles deposited on mica; tapping mode in 150 mM NaCl, 20 mM sodium phosphate, 5% glycerol, pH 7.0 or pH 9.0; single receptor-micelle complexes sorted by the shape of the ectodomain

B1: insulin receptor-related receptor (full-length human IRR with a C-terminal 6xHIS tag) (receptor)
chain 1: VEVCPSLDIRSEVAELRQLENCSVVEGHLQILLMFTATGEDFRGLSFPRLTQVTDYLLLFRVYGLESLRDLFPNLAVIRGTRLFLGYALVIFEMPHLRDVALPALGAVLRGAVRVEKNQELCHLSTIDWGLLQPAPGANHIVGNKLGEECADVCPGVLGAAGEPCAKTTFSGHTDYRCWTSSHCQRVCPCPHGMACTARGECCHTECLGGCSQPEDPRACVACRHLYFQGACLWACPPGTYQYESWRCVTAERCASLHSVPGRASTFGIHQGSCLAQCPSGFTRNSSSIFCHKCEGLCPKECKVGTKTIDSIQAAQDLVGCTHVEGSLILNLRQGYNLEPQLQHSLGLVETITGFLKIKHSFALVSLGFFKNLKLIRGDAMVDGNYTLYVLDNQNLQQLGSWVAAGLTIPVGKIYFAFNPRLCLEHIYRLEEVTGTRGRQNKAEINPRTNGDRAACQTRTLRFVSNVTEADRILLRWERYEPLEARDLLSFIVYYKESPFQNATEHVGPDACGTQSWNLLDVELPLSRTQEPGVTLASLKPWTQYAVFVRAITLTTEEDSPHQGAQSPIVYLRTLPAAPTVPQDVISTSNSSSHLLVRWKPPTQRNGNLTYYLVLWQRLAEDGDLYLNDYCHRGLRLPTSNNDPRFDGEDGDPEAEMESDCCPCQHPPPGQVLPPLEAQEASFQKKFENFLHNAITIPISPWKVTSINKSPQRDSG
chain 2: not shown
notes: alpha subunit (about 100 kDa) of human insulin receptor-related receptor, cut from the single-chain precursor (about 170 kDa); beta subunit (about 70 kDa) of human insulin receptor-related receptor, cut from the single-chain precursor (about 170 kDa); holds the transmembrane segment and the tyrosine kinase domain; Some uncleaved proreceptor (170 kDa) was also seen on the blot; The receptor was …
  binding result: binds
